# Test results published in the nanobody polyreactivity screen of Harvey et al. (2022).
# Assay: yeast display, Sf9 membrane polyspecificity reagent, FACS + sequencing; frameworks hold sequencing errors
# Procedure, shortened: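 A nanobody's polyreactivity label depends on the gate it was sorted from. Yeast display cells were stained with 10% biotinylated, detergent-solubilized Sf9 membrane reagent for 1 hour at 4 °C, enriched on streptavidin microbeads and sorted by FACS. The low and high (top ~1%) gates were set on anti-HA fluorescence for expression and streptavidin fluorescence for reagent binding.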
row,Sequence,polyreactivity (PSR sort gate)
1,QVQLVESGGGLVQAGGSLRLTCAASGFTFRYYTMGWYRQAPGTERELVARISNRGGSTYYADSVKGRFTISRDNAKNTVYLQMNSLKPEDTAVFYCAAARRYYTYYREDYYYWGQGTQVTVSS,high polyreactivity
2,QVQLVESGGGLVQAGGSLRLSCAASGRTFASYAMGWYRQAPGKERELVAVITRGGRTYYADSVKGRFTISRDNAKNTVYLQMNSLKPEDTAVYYCNAAYYSSSYLEDSWGQGTQVTVSS,high polyreactivity
3,QVQHVESGGGLVQAGGSLRLSCAASGRTFNFNTMGWYRQAPGKERELVASITSGGSTNYADSVKGRFTISRDKAKNTVYLQMNSLKPVDTAVYYCATRTTTFWFDYWVQGTQVTVSS,low polyreactivity
4,QVQLVESGGGLVQAGGSLRLSCAASGFTFRRYAMGWYRQAPGQDRELVAAISYRGGTYYADSVKGRFTISRDNAKNTVYLQMNSLKPEDTAVYYCNARYRGKYSSYGYWGQGTQVTVSS,high polyreactivity
5,QDQHVESGGGLVQAGGSLRLSCAASGGIFYTYTMGWYRQAPGKEREFVAAITRSGDRTYYADSVKGRFTISRDNAKNTGYLQMNSLKPEDTAVYYCNTVTRKNPSGLALDEYNYCGQGTQVTVSS,high polyreactivity
6,QVQLVDSGGGLVQAGGSLRLSCAASGSNFDDYAMGWYRQAPGKERELVAAISSSGTSTYYADSVKGRFTISRDNAKNTVYLQMNSLKPEDTAVYYCAAKKKYHYVASYKRFEYWGQGTQVTVSS,low polyreactivity
7,QVQLVESGGGLVQAGGSLRLSCAASGLIFPYYAMGWYRQAHGKERELVAAITRRGGSTYYADSVKGRFTISRDNAKNTVYLQMNSLKPEDTAVYYCNKVDQGRYGYWGQGTQVTVSS,high polyreactivity
8,QVHLVESGGGLVQAGGSLRLSCAASGSILQRNAMGWYRQAPGKERELVASITFSAGRTYYADSVKGRFTISRDNAKNTVYLQMKSLKPEDTAVYYCAADPYSYGARGARGDYWGQGTQVSVSS,low polyreactivity
9,QVQLVESGGGLVQAGGSLRLSCAASGFTIFLNAMGWYRQAPGKERELVAAITVSGSSTYYADSVKGRFTISRDNAKNTVYLQMNSLKPEDTAVYYCNAEIYSPYYTYDYWGQGTQVTVSS,low polyreactivity
10,QVQLVESGGGLVQAGGSLRLSCAASGSTFESNAMGWYRQAPGKERELVASISGSGGSTFYADSVKGRFTISRDNAKNTVYLQMNSLKPEDTAVYYCAAYKEPYYEEYGYWGQGTQVTVSS,low polyreactivity
11,QVQLVESGGGLVQAGGSLRLSCAASGLISESYAMGWYRQAPGKETELVAAISSGGSTYYADSVKGRFTISRDNAKNTVYLQMNSLNPEDTAVYFCNATGYKYNYGHAYYYAVDYWGQGTQVTVSS,low polyreactivity
12,QVQLVESGGGLVQAGGSLRLSCAASGFIFRPYVMGWYRQAPGTERELVAAISRSGSSTYYADSVKGRFTISRDNAKNTVYLQMNSLKPEDTAVYYCARRTSQEFDYWGQGTQVTVSS,high polyreactivity
13,QVQLVESGGGLVQAGGSLRLSCAASGRIFHRYDMGWDRQAPGKEREFVAAISSRGGSTYYADSVKGRVTISRDYAKNTVYLQMNSLKPEDTAVYYCAAQNGYRSGEFYYWGQGTQVTVSP,high polyreactivity
14,QVQLVESGGGLVQLGGSLRLSCAASGSIIFSYAIGWSRQAPWKERELVADNRSSDDDTYYADSVKGRFTISRDNAQNTDYLDMNSLKPEDTGGYYCNADFGYWWDGRRYDYWVQGTQVTVSS,low polyreactivity
15,QVQLVESGGGLVQAGGSLRLSCAASGLIFLRYAMGWYRQAPGTERELVAVISSGGRTYYADSVKGRFTISRDNAKNTVYLQMNSLKPEDTAVYYCAARTRSYWGTYGSYHYDYWGQGTQVTVSS,high polyreactivity
16,QVQLVESGGGLDQAGGSLRLSCAASGRIFLPNAMGWYRQAPGKEMEFVASISWSGGSTYYADSVKGRFTISRDYAKNTVYLQMNSLKPEDTAVYYCNARFGKRYYYWGQGTQVTVSS,low polyreactivity
